# From IntAct's records for PubMed 20300064
# B1: Rho guanine nucleotide exchange factor 11 (Homo sapiens), O15085 (parent)
# chain: MSVRLPQSIDRLSSLSSLGDSAPERKSPSHHRQPSDASETTGLVQRCVIIQKDQHGFGFTVSGDRIVLVQSVRPGGAAMKAGVKEGDRIIKVNGTMVTNSSHLEVVKLIKSGAYVALTLLGSSPSSMGISGLQQDPSPAGAPRITSVIPSPPPPPPLPPPQRITGPKPLQDPEVQKHATQILRNMLRQEEKELQDILPLYGDTSQRPSEGRLSLDSQEGDSGLDSGTERFPSLSESLMNRNSVLSDPGLDSPRTSPVIMARVAQHHRRQGSDAAVPSTGDQGVDQSPKPLIIGPEEDYDPGYFNNESDIIFQDLEKLKSRPAHLGVFLRYIFSQADPSPLLFYLCAEVYQQASPKDSRSLGKDIWNIFLEKNAPLRVKIPEMLQAEIDSRLRNSEDARGVLCEAQEAAMPEIQEQIHDYRTKRTLGLGSLYGENDLLDLDGDPLRERQVAEKQLAALGDILSKYEEDRSAPMDFALNTYMSHAGIRLREARPSNTAEKAQSAPDKDKWLPFFPKTKKSSNSKKEKDALEDKKRNPILKYIGKPKSSSQSTFHIPLSPVEVKPGNVRNIIQHFENNQQYDAPEPGTQRLSTGSFPEDLLESDSSRSEIRLGRSESLKGREEMKRSRKAENVPRSRSDVDMDAAAEATRLHQSASSSTSSLSTRSLENPTPPFTPKMGRRSIESPSLGFCTDTLLPHLLEDDLGQLSDLEPEPDAQNWQHTVGKDVVAGLTQREIDRQEVINELFVTEASHLRTLRVLDLIFYQRMKKENLMPREELARLFPNLPELIEIHNSWCEAMKKLREEGPIIKEISDLMLARFDGPAREELQQVAAQFCSYQSIALELIKTKQRKESRFQLFMQEAESHPQCRRLQLRDLIISEMQRLTKYPLLLESIIKHTEGGTSEHEKLCRARDQCREILKYVNEAVKQTENRHRLEGYQKRLDATALERASNPLAAEFKSLDLTTRKMIHEGPLTWRISKDKTLDLHVLLLEDLLVLLQKQDEKLLLKCHSKTAVGSSDSKQTFSPVLKLNAVLIRSVATDKRAFFIICTSKLGPPQIYELVALTSSDKNTWMELLEEAVRNATRHPGAAPMPVHPPPPGPREPAQQGPTPSRVELDDSDVFHGEPEPEELPGGTGSQQRVQGKHQVLLEDPEQEGSAEEEELGVLPCPSTSLDGENRGIRTRNPIHLAFPGPLFMEGLADSALEDVENLRHLILWSLLPGHTMETQAAQEPEDDLTPTPSVISVTSHPWDPGSPGQAPPGGEGDNTQLAGLEGERPEQEDMGLCSLEHLPPRTRNSGIWESPELDRNLAEDASSTEAAGGYKVVRKAEVAGSKVVPALPESGQSEPGPPEVEGGTKATGNCFYVSMPSGPPDSSTDHSEAPMSPPQPDSLPAGQTEPQPQLQGGNDDPRRPSRSPPSLALRDVGMIFHTIEQLTLKLNRLKDMELAHRELLKSLGGESSGGTTPVGSFHTEAARWTDGSLSPPAKEPLASDSRNSHELGPCPEDGSDAPLEDSTADAAASPGP
# Variants of: B1
# Conditions: with rhoa_human RHOA
row,Variant,effect of a mutation on the interaction
1,E741N,decreasing interaction
2,S748A,decreasing interaction

# Variants of: B1
# Conditions: with rhoa_human RHOA
# Remark: another data set of the same source
row,Variant,effect of a mutation on the interaction
1,R867Q,disrupting interaction
2,R868G,disrupting interaction
3,L869A,disrupting interaction

# Variants of: B1
# Conditions: with rhoa_human RHOA
# Remark: another data set of the same source
row,Variant,effect of a mutation on the interaction
1,R872D,disrupting interaction
2,D873N,disrupting interaction
3,I876M,disrupting interaction

# Variants of: B1
# Conditions: with rhoa_human RHOA
# Remark: another data set of the same source
row,Variant,effect of a mutation on the interaction
1,E928A,disrupting interaction
